These results are taken from patent publication US20250170316A1.

The experiment deals with complement factor H present in serum (human) (UniProt P08603). Briefly: cell-based or functional assay.
Sequence of UniProt P08603 (P08603 19-1231 limits assumed): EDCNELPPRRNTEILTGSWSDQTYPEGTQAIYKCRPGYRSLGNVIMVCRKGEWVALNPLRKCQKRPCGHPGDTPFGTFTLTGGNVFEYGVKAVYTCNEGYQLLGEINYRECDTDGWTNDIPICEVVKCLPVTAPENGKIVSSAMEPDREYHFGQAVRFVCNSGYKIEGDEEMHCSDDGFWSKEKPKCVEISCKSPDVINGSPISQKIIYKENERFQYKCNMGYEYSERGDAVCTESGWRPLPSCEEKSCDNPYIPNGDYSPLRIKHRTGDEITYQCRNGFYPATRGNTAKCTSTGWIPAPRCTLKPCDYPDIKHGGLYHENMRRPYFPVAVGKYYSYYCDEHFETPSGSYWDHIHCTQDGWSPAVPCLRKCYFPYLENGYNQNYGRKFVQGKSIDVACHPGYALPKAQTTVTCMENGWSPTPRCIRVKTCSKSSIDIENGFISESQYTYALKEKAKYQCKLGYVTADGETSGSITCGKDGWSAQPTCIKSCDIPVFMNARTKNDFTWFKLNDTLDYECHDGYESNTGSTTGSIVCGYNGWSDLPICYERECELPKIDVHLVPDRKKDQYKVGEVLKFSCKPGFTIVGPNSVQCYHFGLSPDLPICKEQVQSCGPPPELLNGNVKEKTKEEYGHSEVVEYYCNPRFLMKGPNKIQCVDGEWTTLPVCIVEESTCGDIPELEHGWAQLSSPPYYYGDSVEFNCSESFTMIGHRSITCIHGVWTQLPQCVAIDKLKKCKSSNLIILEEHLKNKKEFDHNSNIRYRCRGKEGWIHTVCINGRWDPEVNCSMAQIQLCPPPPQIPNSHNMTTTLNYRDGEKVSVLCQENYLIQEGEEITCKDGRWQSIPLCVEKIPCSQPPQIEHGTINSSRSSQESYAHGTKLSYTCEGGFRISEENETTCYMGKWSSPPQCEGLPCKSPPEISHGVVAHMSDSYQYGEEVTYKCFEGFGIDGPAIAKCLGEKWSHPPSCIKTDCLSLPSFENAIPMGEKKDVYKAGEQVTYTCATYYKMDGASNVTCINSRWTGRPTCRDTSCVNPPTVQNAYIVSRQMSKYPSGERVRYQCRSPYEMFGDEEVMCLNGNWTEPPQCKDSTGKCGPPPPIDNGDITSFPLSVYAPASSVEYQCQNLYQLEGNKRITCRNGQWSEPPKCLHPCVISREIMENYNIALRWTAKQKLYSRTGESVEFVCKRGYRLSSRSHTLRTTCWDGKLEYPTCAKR

Substance “PspCN (residues 37-140 of pneumococcal surface protein C, PspC, of Streptococcus pneumoniae strain D39)” returned an inhibition of acidified serum lysis of PNH-like (AET-treated) erythrocytes, IC50 of 27 nM.
